From paper PMC11407402
Where “and” joins values, the source holds several entries; their conditions need not be identical. Equal entries are not always repeated.

Molecular target: non-glycosylated recombinant FcγRIIIa, 158 V allele, immobilised in the TSKgel FcγR-IIIA-NPR column
Experiment: affinity HPLC on immobilised receptor

elution time: 14.4 min and 16.2 min and 17.9 min
mean elution time: 15.5 min
Substance: anti-CD20 antibody (rituximab V regions), wild-type human IgG1
